Laboratory results published in patent publication US20240261333A1 (published 2024).

Columns and labels:
Experiment in all cases: anti-FLAG co-IP from lysate of N-FLAG B3GNT2 cells, mass spectrometry
UBTF = target: T1, UBTF (human, UniProt P17480-2 1-727, limits assumed)
T1 construct: also called NP_001070151.1 (+3)
T1 sequence (looked up): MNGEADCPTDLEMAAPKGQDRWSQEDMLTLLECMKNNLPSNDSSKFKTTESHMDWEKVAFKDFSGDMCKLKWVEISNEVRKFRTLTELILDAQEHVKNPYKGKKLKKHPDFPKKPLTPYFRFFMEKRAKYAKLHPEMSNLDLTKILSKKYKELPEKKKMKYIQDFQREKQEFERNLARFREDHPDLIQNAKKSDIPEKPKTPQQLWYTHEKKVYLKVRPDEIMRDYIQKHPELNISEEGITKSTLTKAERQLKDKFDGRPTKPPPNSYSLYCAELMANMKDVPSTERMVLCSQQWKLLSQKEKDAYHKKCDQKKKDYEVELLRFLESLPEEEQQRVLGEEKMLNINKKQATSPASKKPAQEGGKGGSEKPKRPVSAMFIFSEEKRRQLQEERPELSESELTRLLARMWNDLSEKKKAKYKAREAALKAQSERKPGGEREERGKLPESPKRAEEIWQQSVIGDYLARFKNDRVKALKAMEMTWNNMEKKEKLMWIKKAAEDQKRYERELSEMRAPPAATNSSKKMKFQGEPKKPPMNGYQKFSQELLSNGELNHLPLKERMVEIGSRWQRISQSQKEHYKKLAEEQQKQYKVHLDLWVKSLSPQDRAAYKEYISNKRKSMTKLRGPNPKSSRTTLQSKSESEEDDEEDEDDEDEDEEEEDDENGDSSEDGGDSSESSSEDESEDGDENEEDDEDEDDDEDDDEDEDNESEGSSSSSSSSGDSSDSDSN
Procedure: (§1) Cells were plated in 10-cm cell culture dishes and grown to 60-80% confluency. For each condition, two biological replicates were harvested for co-IP. Cells were washed with PBS and 4 mL of lysis buffer (20 mM HEPES, 1% Triton X-100, 150 mM NaCl, 1 mM EDTA, and 10% glycerol) containing protease inhibitor cocktail was added. Cells were scraped and lysate was incubated at 4° C. under rotary agitation for 1 h. Lysate was centrifuged at 14,000×g for 10 min at 4° C. Supernatant was transferred to a new tube and an aliquot was taken as the input. […] For Western blots, 10 μg/mL Chicken Anti-FLAG (Aves labs ET-DY100) and IgY control (R&D Systems AB-101-C) antibodies were biotinylated (Thermo Fisher Scientific 90407) and added to the respective conditions. Lysates with antibodies were incubated at 4° C. under rotary agitation overnight. For each mL of lysate, 50 μL of Pierce Protein A/G Magnetic Beads (Mass spectrometry; Thermo Fisher Scientific 88803) or Pierce Streptavidin Magnetic Beads (Western blot; Thermo Fisher Scientific 88817) was washed twice with lysis buffer. Lysates with antibodies were added to the beads and incubated at 4° C. under rotary agitation for 4 h. Beads were washed with lysis buffer 3 times and resuspended in lysis buffer for storage.
(§2) Magnetic beads were resuspended in 100 mM Tris pH 7.8, reduced, alkylated and digested with trypsin at 37° ° C. overnight. This solution was subjected to solid phase extraction to concentrate the peptides and remove unwanted reagents followed by injection onto a Shimadzu HPLC with fraction collector. Eight fractions were collected and after concentration were injected on a Waters NanoAcquity HPLC equipped with a self-packed Aeris 3 μm C18 analytical column 0.075 mm by 20 cm, (Phenomenex). Peptides were eluted using standard reverse-phase gradients. The effluent from the column was analyzed using a Thermo Orbitrap Elite mass spectrometer (nanospray configuration) operated in a data dependent manner for 54 minutes. The resulting fragmentation spectra were correlated against the known database using Proteome Discover 1.4 (Thermo Fisher Scientific).

PDIA4 = target: T2, PDIA4 (human, UniProt P13667 21-645)
T2 construct: also called XP_006716248.1
T2 sequence (looked up): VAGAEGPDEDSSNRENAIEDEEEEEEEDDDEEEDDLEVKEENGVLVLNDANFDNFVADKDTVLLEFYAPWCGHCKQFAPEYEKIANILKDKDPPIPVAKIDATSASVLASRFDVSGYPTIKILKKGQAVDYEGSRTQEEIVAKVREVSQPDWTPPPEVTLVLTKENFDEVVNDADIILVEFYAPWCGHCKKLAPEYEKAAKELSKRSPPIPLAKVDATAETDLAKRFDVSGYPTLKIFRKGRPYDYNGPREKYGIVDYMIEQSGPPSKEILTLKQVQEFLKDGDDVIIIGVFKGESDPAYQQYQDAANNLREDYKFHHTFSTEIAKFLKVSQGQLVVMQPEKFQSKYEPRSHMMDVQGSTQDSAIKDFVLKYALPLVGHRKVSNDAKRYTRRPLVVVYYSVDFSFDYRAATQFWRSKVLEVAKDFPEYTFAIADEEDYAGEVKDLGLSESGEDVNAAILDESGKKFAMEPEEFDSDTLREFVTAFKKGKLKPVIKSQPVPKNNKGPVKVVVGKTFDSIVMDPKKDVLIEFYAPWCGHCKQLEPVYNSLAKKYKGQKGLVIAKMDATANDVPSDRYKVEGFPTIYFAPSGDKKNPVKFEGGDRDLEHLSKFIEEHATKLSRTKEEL
Procedure: as §1, §2

ABCD1 = target: T3, ABCD1 (human, UniProt P33897 1-745)
T3 construct: also called NP_000024.2
T3 sequence (P33897 whole entry): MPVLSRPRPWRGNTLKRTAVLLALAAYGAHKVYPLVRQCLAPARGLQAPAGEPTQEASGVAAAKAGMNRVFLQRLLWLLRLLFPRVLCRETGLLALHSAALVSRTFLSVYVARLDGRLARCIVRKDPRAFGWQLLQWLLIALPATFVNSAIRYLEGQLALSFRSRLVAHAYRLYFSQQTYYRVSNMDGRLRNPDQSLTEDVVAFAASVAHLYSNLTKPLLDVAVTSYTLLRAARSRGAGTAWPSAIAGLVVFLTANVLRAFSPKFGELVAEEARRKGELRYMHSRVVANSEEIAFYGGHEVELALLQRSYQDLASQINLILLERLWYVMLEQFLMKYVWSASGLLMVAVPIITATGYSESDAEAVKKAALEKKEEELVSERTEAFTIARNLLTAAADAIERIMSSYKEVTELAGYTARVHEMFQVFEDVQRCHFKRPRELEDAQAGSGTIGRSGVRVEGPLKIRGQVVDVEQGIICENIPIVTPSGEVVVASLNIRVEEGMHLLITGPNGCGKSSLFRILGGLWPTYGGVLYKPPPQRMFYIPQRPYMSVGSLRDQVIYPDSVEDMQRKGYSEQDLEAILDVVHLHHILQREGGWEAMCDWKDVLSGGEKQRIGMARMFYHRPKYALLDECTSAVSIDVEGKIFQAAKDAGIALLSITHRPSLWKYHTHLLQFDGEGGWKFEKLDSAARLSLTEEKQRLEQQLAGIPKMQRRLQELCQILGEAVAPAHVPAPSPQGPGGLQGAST
Procedure: as §1, §2

Measured: co-IP mass spectrometry count

B1: N-terminal FLAG tagged B3GNT2 (enzyme, human, UniProt Q9NY97 1-397, looked up)
chain: MSVGRRRIKLLGILMMANVFIYFIMEVSKSSSQEKNGKGEVIIPKEKFWKISTPPEAYWNREQEKLNRQYNPILSMLTNQTGEAGRLSNISHLNYCEPDLRVTSVVTGFNNLPDRFKDFLLYLRCRNYSLLIDQPDKCAKKPFLLLAIKSLTPHFARRQAIRESWGQESNAGNQTVVRVFLLGQTPPEDNHPDLSDMLKFESEKHQDILMWNYRDTFFNLSLKEVLFLRWVSTSCPDTEFVFKGDDDVFVNTHHILNYLNSLSKTKAKDLFIGDVIHNAGPHRDKKLKYYIPEVVYSGLYPPYAGGGGFLYSGHLALRLYHITDQVHLYPIDDVYTGMCLQKLGLVPEKHKGFRTFDIEEKNKNNICSYVDLMLVHSRKPQEMIDIWSQLQSAHLKC
notes: Bait of the co-IP; pulled down from cell lysate with mouse anti-FLAG antibody; also called N-FLAG B3GNT2; N-term FLAG; not shown: N-terminal FLAG tag
0: all assays above
